# Like-named read-outs stand apart in the source and are kept apart here.
# T1: mouse GPRC5D (mouse, UniProt Q9JIL6 1-344)
# T1 construct: whole, on cells; HEK293T-mGPRC5D cells; also called mGPRC5D; murine GPRC5D
# T1 sequence (looked up): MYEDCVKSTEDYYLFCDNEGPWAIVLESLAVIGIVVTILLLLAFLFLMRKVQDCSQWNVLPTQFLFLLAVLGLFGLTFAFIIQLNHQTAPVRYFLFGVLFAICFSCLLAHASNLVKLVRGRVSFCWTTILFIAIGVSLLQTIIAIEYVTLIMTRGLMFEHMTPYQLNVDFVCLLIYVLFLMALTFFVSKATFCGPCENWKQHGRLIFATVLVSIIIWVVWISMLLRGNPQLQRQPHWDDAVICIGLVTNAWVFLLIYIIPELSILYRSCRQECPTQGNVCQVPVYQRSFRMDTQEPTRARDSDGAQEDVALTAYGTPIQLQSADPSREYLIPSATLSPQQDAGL
# B1: ATG596 (antibody, V domains shown)
# VH: QVQLVQSGAEVKKPGASVKVSCKASGYSFTGYTMNWVRQAPGQGLEWMGLINPYNSDTNYAQKLQGRVTMTTDTSTSTAYMELRSLRSDDTAVYYCARVALRVALDYWGQGTLVTVSS
# VL: DIQMTQSPSSLSASVGDRVTITCKASQNVATHVGWYQQKPGKAPKRLIYSASYRYSGVPSRFSGSGSGTEFTLTISNLQPEDFATYYCQQYNRYPYTFGQGTKLEIK
# notes: Human IgG1; also called benchmark antibody ATG596; positive human IgG1 control antibody
# Legend:
# [1] = target: T1, mouse GPRC5D; assay: FACS, HEK293T-mGPRC5D cells
# Text: (§1) The subcloning plates were screened by Mirrorball assay and the subclones with good binding ability were expanded to 24-wells for confirmation tests. The specificity and cross-reactivity of these subclones were confirmed with FACS analysis. Briefly, parental HEK293T, HEK293T cells stably over-expressing human GPRC5D protein (i.e., HEK293T-hGPRC5D), HEK293T cells stably over-expressing cynomolgus monkey GPRC5D protein (i.e., HEK293T-cynoGPRC5D), HEK293T cells stably over-expressing mouse GPRC5D protein (i.e., HEK293T-mGPRC5D), and OPM2 cells were incubated with antibodies produced by each subclone, respectively. Fluorescent dye-conjugated secondary antibody was used to detect the binding of the primary antibody with the cells. Median fluorescence intensity (MFI) was measured by FACS analysis,
# (§2) As a result, 21 antibodies were discovered with unique sequences showing positive binding with HEK293T-hGPRC5D and OPM2 cells. Among which, some clones could also bind with HEK293T-cynoGPRC5D and/or HEK293T-mGPRC5D. […] ATG596 was a positive human IgG1 control antibody which comprises a VH region having an amino acid sequence as set forth in SEQ ID NO: 199, and a VL region having an amino acid sequence as set forth in SEQ ID NO: 200.
# [2] = target: T2, cynomolgus monkey GPRC5D (cynomolgus monkey); assay: FACS, HEK293T-cynoGPRC5D cells
# T2 construct: whole, on cells; HEK293T-cynoGPRC5D cells; also called cynoGPRC5D
# Text: as §1, §2
# [3] = target: T2, cynomolgus monkey GPRC5D; assay: FACS, HEK293T-cynoGPRC5D cells; remark: listed apart in the source
# [4] = target: T1, mouse GPRC5D; assay: FACS, HEK293T-mGPRC5D cells; remark: listed apart in the source
# [5] = target: T2, cynomolgus monkey GPRC5D; assay: FACS, HEK293T-cynoGPRC5D cells; remark: listed apart in the source
# Outline: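 Subclone antibodies incubated with parental or GPRC5D-overexpressing HEK293T cells (human, cynomolgus, mouse) and OPM2 cells; bound antibody detected with fluorescent dye-conjugated secondary antibody. Median fluorescence intensity read by FACS.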
# [6] = target: T1, mouse GPRC5D; assay: FACS, HEK293T-mGPRC5D cells; remark: listed apart in the source
# Text: as §1, §2
binder,measurement,setting,value
B1,% Positive,[1],98.2%
same,MFI,[1],14600
same,% Positive,[2],98.5%
same,MFI,[2],7400
same,EC50,[3],0.0266 µM
same,Top,[3],22500
same,EC50,[4],0.0255 µM
same,Top,[4],45600
same,% Positive,[5],98.6%
same,MFI,[5],6580
same,% Positive,[6],97.3%
same,MFI,[6],12400

# Reference: US20250368734A1 (ANTENGENE BIOLOGICS, published 2025)
